Data reported in PMC3581772.

Assays:
[1] = biological target: T1, I59T human lysozyme (human) (UniProt P61626)
T1 sequence: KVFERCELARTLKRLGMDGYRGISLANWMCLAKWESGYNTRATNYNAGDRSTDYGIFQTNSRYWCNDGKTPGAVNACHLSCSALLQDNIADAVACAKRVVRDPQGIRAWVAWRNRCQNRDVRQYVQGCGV

[2] = biological target: amyloid β peptide Aβ(1–42) (UniProt P05067)

Sequence of trypsin-activated α2M (P01023 whole entry, looked up): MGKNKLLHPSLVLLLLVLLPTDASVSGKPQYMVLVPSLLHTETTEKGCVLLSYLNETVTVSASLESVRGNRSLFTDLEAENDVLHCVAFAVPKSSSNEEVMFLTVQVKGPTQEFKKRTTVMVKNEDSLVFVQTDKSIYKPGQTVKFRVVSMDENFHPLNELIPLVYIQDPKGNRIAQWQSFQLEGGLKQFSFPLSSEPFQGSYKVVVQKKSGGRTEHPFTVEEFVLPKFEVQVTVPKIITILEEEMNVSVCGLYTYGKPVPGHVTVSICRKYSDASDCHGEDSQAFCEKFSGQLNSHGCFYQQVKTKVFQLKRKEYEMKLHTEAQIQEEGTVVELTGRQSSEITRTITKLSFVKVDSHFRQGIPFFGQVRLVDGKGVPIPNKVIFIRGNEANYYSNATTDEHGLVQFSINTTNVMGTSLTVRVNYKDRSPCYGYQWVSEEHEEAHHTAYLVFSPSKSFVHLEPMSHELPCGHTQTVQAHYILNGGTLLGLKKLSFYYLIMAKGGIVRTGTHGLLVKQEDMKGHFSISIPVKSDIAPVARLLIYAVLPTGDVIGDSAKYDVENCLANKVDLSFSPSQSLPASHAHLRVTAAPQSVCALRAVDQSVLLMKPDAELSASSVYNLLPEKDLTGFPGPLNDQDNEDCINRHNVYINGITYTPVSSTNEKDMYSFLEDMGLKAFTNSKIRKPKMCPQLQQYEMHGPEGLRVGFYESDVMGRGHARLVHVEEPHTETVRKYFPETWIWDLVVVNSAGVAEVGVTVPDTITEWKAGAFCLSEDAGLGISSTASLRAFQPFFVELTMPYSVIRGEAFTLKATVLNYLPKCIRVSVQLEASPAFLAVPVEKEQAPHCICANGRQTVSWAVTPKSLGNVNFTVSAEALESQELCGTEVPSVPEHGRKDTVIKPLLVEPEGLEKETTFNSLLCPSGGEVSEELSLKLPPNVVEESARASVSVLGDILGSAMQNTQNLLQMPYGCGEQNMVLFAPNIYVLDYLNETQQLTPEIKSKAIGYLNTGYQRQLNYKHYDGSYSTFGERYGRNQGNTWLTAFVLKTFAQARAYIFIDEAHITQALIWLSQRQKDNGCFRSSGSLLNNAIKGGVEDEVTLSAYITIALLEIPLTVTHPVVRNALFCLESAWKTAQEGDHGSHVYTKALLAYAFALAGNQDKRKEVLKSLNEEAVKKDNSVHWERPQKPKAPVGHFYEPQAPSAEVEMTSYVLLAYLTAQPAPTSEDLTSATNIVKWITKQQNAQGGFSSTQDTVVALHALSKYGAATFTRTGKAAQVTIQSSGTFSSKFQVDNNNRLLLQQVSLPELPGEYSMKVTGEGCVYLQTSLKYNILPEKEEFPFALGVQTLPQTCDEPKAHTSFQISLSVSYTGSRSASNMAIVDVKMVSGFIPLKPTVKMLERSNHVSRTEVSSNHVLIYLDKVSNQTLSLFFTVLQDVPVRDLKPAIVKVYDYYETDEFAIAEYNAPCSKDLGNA

decrease of ThT fluorescence at the endpoint of I59T lysozyme fibril formation, lysozyme-to-α2M 10:1 [1]: > 90% | suppression of ThT signal at the endpoint of Aβ(1–42) fibril formation, Aβ-to-α2M 10:1 [2]: > 80%
Substance: trypsin-activated α2M (from UniProt P01023 24-1474) (complex)
